In patent US20250235548A1, “ANTIBODY-DRUG CONJUGATES TARGETING NAPI2B AND METHODS OF USE” (Zymeworks BC Inc., priority 2022, published 2025):
Residue numbers refer to the chain shown, from its start.

T1: NaPi2b expressed on IGROV-1 cells (Homo sapiens, UniProt O95436)
T1 construct: endogenous NaPi2b-expressing cancer cell lines IGROV-1 (ovarian carcinoma); endogenous in cells; host or cells: IGROV-1
T1 sequence (O95436 1-690): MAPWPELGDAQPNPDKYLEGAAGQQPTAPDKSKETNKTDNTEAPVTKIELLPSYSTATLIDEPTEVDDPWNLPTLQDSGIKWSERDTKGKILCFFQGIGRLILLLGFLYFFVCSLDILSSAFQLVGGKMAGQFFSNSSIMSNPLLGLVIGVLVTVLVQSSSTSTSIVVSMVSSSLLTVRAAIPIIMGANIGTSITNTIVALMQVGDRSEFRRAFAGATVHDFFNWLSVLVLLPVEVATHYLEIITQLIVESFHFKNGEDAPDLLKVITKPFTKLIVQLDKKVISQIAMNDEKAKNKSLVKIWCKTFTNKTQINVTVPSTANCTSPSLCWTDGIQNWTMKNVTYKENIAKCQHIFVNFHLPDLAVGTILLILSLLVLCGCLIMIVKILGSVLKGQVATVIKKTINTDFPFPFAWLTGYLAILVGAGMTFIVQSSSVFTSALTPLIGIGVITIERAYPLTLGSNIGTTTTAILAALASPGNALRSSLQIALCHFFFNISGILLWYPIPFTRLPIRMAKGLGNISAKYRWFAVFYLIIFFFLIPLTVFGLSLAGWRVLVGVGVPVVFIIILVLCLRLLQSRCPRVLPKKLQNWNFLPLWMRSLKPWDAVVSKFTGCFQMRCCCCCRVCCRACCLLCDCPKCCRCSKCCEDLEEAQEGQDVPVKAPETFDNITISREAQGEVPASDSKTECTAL

B1: v29453: "Representative humanized antibody variants ... of the mouse antibody" that specifically binds hNaPi2b (antibody, V domains shown)
VH: QVQLVQSGAEVKKPGASVKMSCKASGFTFTSYNVHWVRQAPGQGLEWIAAISPGNGDLSYAQKFQGRATLTVDRSTSTAYMELSSLRSEDTAVYYCARGRTGMGAVDYWGQGTLVTVSS
VL: DVQMTQSPSSLSASVGDRVTITCRASQDVYSYLNWYQQKPGKAVKLLIYYTSRLQSGVPSRFSGSGSGTDYTLTISSLQPEDFATYYCQQYNIFPWTFGQGTKLEIK
modifications: v29449, v29453, v29457 VH (H4); v29453, v29454, v29455, v29456 VL (L2)
B2: v29457: "Representative humanized antibody variants ... of the mouse antibody" that specifically binds hNaPi2b (antibody, V domains shown)
VH: B1 VH
VL: B1 VL with V2I, V44P, Y71F
modifications: v29449, v29453, v29457 VH (H4); v29457, v29458, v29459, v29460 VL (L1)
B3: v29454: "Representative humanized antibody variants ... of the mouse antibody" that specifically binds hNaPi2b (antibody, V domains shown)
VH: B1 VH with R74T
VL: B1 VL
modifications: v29450, v29454, v29458 VH (H3); v29453, v29454, v29455, v29456 VL (L2)
B4: v29450: "Representative humanized antibody variants ... of the mouse antibody" that specifically binds hNaPi2b (antibody, V domains shown)
VH: B1 VH with R74T
VL: B1 VL with F83I
modifications: v29450, v29454, v29458 VH (H3); v29449, v29450, v29451, v29452 VL (L3)
B5: v29455: "Representative humanized antibody variants ... of the mouse antibody" that specifically binds hNaPi2b (antibody, V domains shown)
VH: B1 VH with M20V, A68V, L70M, R74T, A79V
VL: B1 VL
modifications: v29451, v29455, 29459 VH (H2); v29453, v29454, v29455, v29456 VL (L2)
B6: v29460: "Representative humanized antibody variants ... of the mouse antibody" that specifically binds hNaPi2b (antibody, V domains shown)
VH: B1 VH with M20V, I48M, A49G, A68V, L70M, V72R, R74T, A79V
VL: B1 VL with V2I, V44P, Y71F
modifications: v29452, v29456, v29460 VH (H1); v29457, v29458, v29459, v29460 VL (L1)
B7: v29451: "Representative humanized antibody variants ... of the mouse antibody" that specifically binds hNaPi2b (antibody, V domains shown)
VH: B1 VH with M20V, A68V, L70M, R74T, A79V
VL: B1 VL with F83I
modifications: v29451, v29455, 29459 VH (H2); v29449, v29450, v29451, v29452 VL (L3)
B8: v29458: "Representative humanized antibody variants ... of the mouse antibody" that specifically binds hNaPi2b (antibody, V domains shown)
VH: B1 VH with R74T
VL: B1 VL with V2I, V44P, Y71F
modifications: v29450, v29454, v29458 VH (H3); v29457, v29458, v29459, v29460 VL (L1)
B9: v29449: "Representative humanized antibody variants ... of the mouse antibody" that specifically binds hNaPi2b (antibody, V domains shown)
VH: B1 VH
VL: B1 VL with F83I
modifications: v29449, v29453, v29457 VH (H4); v29449, v29450, v29451, v29452 VL (L3)

biological target: T1, NaPi2b expressed on IGROV-1 cells; assay: Cellular binding of bivalent antibodies by flow cytometry (Example 16); settings: AF647 GeoMean; 24 hours at 4° C.; NB = no cellular binding
Procedure: IGROV-1 cells express endogenous NaPi2b at a high level.
Briefly, cells were seeded at 50,000 cells/well in conical-bottom 96-well plates and treated with test antibody for 24 hours at 4° C. to prevent internalization. […] Following incubation and washing, fluorescence was detected by flow cytometry on a BD LSRFortessa™ Cell Analyzer (BD Biosciences, Franklin Lake, NJ) with 1,000 minimum events collected per well.

Molecule | Bmax, IGROV-1
B1 | 44,480
B2 | 44,539
B3 | 42,278
B4 | 43,809
B5 | 41,917
B6 | 40,071
B7 | 46,170
B8 | 40,793
B9 | 44,460

same assay, conditions: NB = no cellular binding

Molecule | Curve Hill Slope (h), IGROV-1
B1 | 1.2
B2 | 1.0
B3 | 1.0
B4 | 1.2
B5 | 1.1
B6 | 1.2
B7 | 1.1
B8 | 1.1
B9 | 1.3

system: not listed separately; assay: Thermal stability by differential scanning calorimetry (Example 8); format: physicochemical; settings: DSC, 0.4 mg/mL in PBS, 20° C. to 100° C. at 60° C./hr
Procedure: The thermal stability of the humanized antibody variants was assessed by differential scanning calorimetry (DSC) as described below.
400 μL of purified samples primarily at concentrations of 0.4 mg/mL in PBS were used for DSC analysis with a VP-Capillary DSC (Malvern Panalytical Inc., Westborough, MA). At the start of each DSC run, 5 buffer blank injections were performed to stabilize the baseline, and a buffer injection was placed before each sample injection for referencing. Each sample was scanned from 20° C. to 100° C. at a 60° C./hr rate, with low feedback, 8 sec filter, 3 min pre-scan thermostat, and 70 psi nitrogen pressure. The resulting thermograms were referenced and analyzed using Origin 7 software (OriginLab Corporation, Northampton, MA) to determine melting temperature (Tm) as an indicator of thermal stability.

Molecule | Fab Tm (° C.) [°C]
B1 | 78.9
B2 | 80.5
B3 | 79.7
B4 | 81.0
B5 | 81.5
B6 | 80.3
B7 | 83.0
B8 | 81.6
B9 | 80.0
